# Experimental data as given in publication PMC8934645.
# Target: Cas9 from Streptococcus pyogenes (SpyCas9) (Streptococcus pyogenes) (UniProt Q99ZW2)
row,"in vitro DNA cleavage by SpyCas9 RNP (256 nM), Acr titrated 0-8192 nM: Acr concentration that inhibits SpyCas9 [nM]",Substance
1,512,AcrIIA25.1 (natural protein)
2,> 2050,AcrIIA27 (natural protein)
3,> 2050,AcrIIA26 (natural protein)
4,512,AcrIIA28 (natural protein)
5,512,AcrIIA32.1 (natural protein)
